The results in this text go back to patent US12698507B2, “Methods and compositions for conferring and/or enhancing herbicide tolerance using protoporphyrinogen IX oxidase of various cyanobacteria or variant thereof” (FarmHannong Co., Ltd., priority 2019, dated 2026).

The test system of the assay is PPO-deficient BT3 E. coli (ΔPPO). In words: PPO-inhibiting herbicide tolerance test of PPO variants in E. coli (growth on herbicide-containing LB agar). The settings on record: CyPPO19 variants in BT3 (ΔPPO) E. coli; LB agar with 0 to 2,000 μM herbicide, 37° C., dark, 16-20 hours. It counts as cell-based. The essentials: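 Transformants were grown to OD600 0.5–1, adjusted to OD600=0.5 and spotted as 10-fold dilutions on LB agar with ampicillin (100 μg/mL) and 0 to 2,000 μM herbicide. Plates were kept at 37° C in the dark for 16-20 hours; growth was scored relative to wild type, one '+' per 10-fold resistance.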

B1: CyPPO19 A167I + I408W + F360V: variant of CyPPO19 PPO protein (SEQ ID NO: 1) (protein)
chain: MSEVDVAIVGGGLSGLSLAWRLQQSAPQYSVVLLEASDRLGGNITTQTAEGFVWELGPNSFAPTPALLQLIAEVGLQSELIRGDRHLPRYIYWRGQLYPLQPTRPLALATSNLLSPWGKVRAALGALGFVPPYLGSGDESVNSFFRRHLGQEVAERLVAPFVSGVYIGDPQQLSAAAAFRRIAQLEKLGGGLIAGALHLRRQQAPKPKPPTSVQMRPGELGSFKEGLAALPRAIAQQLKAPIHLQTPVQEITPDPKGGYLLRSGEQTWRARSVVLATPAYQTAELVAPFQPAIARVLATIPYPTVACVVLAYPAGLGRSVRPGFGVLIPRSQGIRTLGTIWSSCLFPQRTPAGWQVFTSVIGGATDPDLASLSEEAIVQQVQQDLNRLLDLPAAKARLLGMKVWRRAWPQYMVGYPEQWQQVTHALSQTPGLFLCSNYAEGVALGDRVEHGNRTAAAVAAYLSGGQP
modifications: Synthetic_PPO of Thermosynechococcus elongatus PKUAC-SCTE542 (comprising GenBank No. CP032152.1)
In the case of B1, the “tolerance level relative to wild type, Carfentrazone” value is on record as “+ (‘+’ per each 10-fold resistance)”; the “tolerance level relative to wild type, Flumioxazin” value is “++++ (‘+’ per each 10-fold resistance)”; the “tolerance level relative to wild type, Fomesafen” value is “+ (‘+’ per each 10-fold resistance)”; the “tolerance level relative to wild type, Oxyfluorfen” value is reported as “++ (‘+’ per each 10-fold resistance)”. Moreover, the “tolerance level relative to wild type, Saflufenacil” value is “++++ (‘+’ per each 10-fold resistance)”; the “tolerance level relative to wild type, Sulfentrazone” value is “+++ (‘+’ per each 10-fold resistance)”; the “tolerance level relative to wild type, Tiafenacil” value is given as “++++ (‘+’ per each 10-fold resistance)”.

B2: CyPPO19 A167L + I408R + F360L: variant of CyPPO19 PPO protein (SEQ ID NO: 1) (protein)
chain: MSEVDVAIVGGGLSGLSLAWRLQQSAPQYSVVLLEASDRLGGNITTQTAEGFVWELGPNSFAPTPALLQLIAEVGLQSELIRGDRHLPRYIYWRGQLYPLQPTRPLALATSNLLSPWGKVRAALGALGFVPPYLGSGDESVNSFFRRHLGQEVAERLVAPFVSGVYLGDPQQLSAAAAFRRIAQLEKLGGGLIAGALHLRRQQAPKPKPPTSVQMRPGELGSFKEGLAALPRAIAQQLKAPIHLQTPVQEITPDPKGGYLLRSGEQTWRARSVVLATPAYQTAELVAPFQPAIARVLATIPYPTVACVVLAYPAGLGRSVRPGFGVLIPRSQGIRTLGTIWSSCLFPQRTPAGWQVFTSLIGGATDPDLASLSEEAIVQQVQQDLNRLLDLPAAKARLLGMKVWRRARPQYMVGYPEQWQQVTHALSQTPGLFLCSNYAEGVALGDRVEHGNRTAAAVAAYLSGGQP
modifications: Synthetic_PPO of Thermosynechococcus elongatus PKUAC-SCTE542 (comprising GenBank No. CP032152.1)
As for B2, the “tolerance level relative to wild type, Carfentrazone” value is reported as “+ (‘+’ per each 10-fold resistance)”; the “tolerance level relative to wild type, Flumioxazin” value is listed as “++++ (‘+’ per each 10-fold resistance)”; the “tolerance level relative to wild type, Fomesafen” value was “+++ (‘+’ per each 10-fold resistance)”; the “tolerance level relative to wild type, Oxyfluorfen” value is “+++ (‘+’ per each 10-fold resistance)”. The “tolerance level relative to wild type, Saflufenacil” value is listed as “++++ (‘+’ per each 10-fold resistance)”; the “tolerance level relative to wild type, Sulfentrazone” value was “++++ (‘+’ per each 10-fold resistance)”; the “tolerance level relative to wild type, Tiafenacil” value was “++++ (‘+’ per each 10-fold resistance)”.
